B1: sFRP1: Wnt pathway antagonist (R&D systems) (protein, UniProt Q8N474 32-314, looked up)
Secreted frizzled-related …: SEYDYVSFQSDIGPYQSGRFYTKPPQCVDIPADLRLCHNVGYKKMVLPNLLEHETMAEVKQQASSWVPLLNKNCHAGTQVFLCSLFAPVCLDRPIYPCRWLCEAVRDSCEPVMQFFGFYWPEMLKCDKFPEGDVCIAMTPPNATEASKPQGTTVCPPCDNELKSEAIIEHLCASEFALRMKIKEVKKENGDKKIVPKKKKPLKLGPIKKKDLKKLVLYLKNGADCPCHQLDNLSHHFLIMGRKVKSQYLLTAIHKWDKKNKEFKNFMKKMKNHECPTFQSVFK
B2: DKK1: Wnt pathway antagonist (R&D systems) (protein, UniProt O94907 32-266, looked up)
Dickkopf-related protein 1: TLNSVLNSNAIKNLPPPLGGAAGHPGSAVSAAPGILYPGGNKYQTIDNYQPYPCAEDEECGTDEYCASPTRGGDAGVQICLACRKRRKRCMRHAMCCPGNYCKNGICVSSDQNHFRGEIEETITESFGNDHSTLDGYSRRTTLSSKMYHTKGQEGSVCLRSSDCASGLCCARHFWSKICKPVLKEGQVCTKHRRKGSHGLEIFQRCYCGEGLSCRIQKDHHQASNSSRLHTCQRH

What was measured:
human fetal kidney cells = experiment: qRT-PCR after Wnt antagonists DKK1/sFRP1 with or without VPA; assay type: cell-based
Description: (§1) Cell Treatment: Cells were treated for 24 hours with growth medium supplemented with 1, 2, or 4 mM VPA (Sigma) or with H2O for control sample. Otherwise, cells were treated for 24 hours with growth medium supplemented with the combination of 75 μM TSA (Sigma) and 250 μM 5-AZA (Sigma) or with 100% Ethanol and Acetic Acid (Acetic Acid: H2O 1:1) for control sample. […] 24 hours prior to harvesting VPA at a concentration of 4 mM was added to the cell culture.
(§2) Quantitative Reverse Transcription-PCR: Total RNA from kidney tissue cultured cells was isolated using the TRIZOL reagent (Invitrogen) according to the manufacturer's protocols. cDNA synthesis was carried out using Verso kit (Thermo scientific) with Random primers. Quantitative RT PCR was performed using an ABI7900HT sequence detection system (Perkin-Elmer/Applied Biosystems) in the presence of SYBR green (SYBR green PCR kit; Qiagen). Each analysis reaction was performed in duplicates or triplicates. GapDH was used as an endogenous control throughout all experimental analyses. Analysis was performed using the −ΔΔCt method, which determines fold changes in gene expression relative to a comparator sample.

human adult kidney cells = experiment: as above; assay type: cell-based; details: DKK1 3 μg/ml or sFRP1 7 μg/ml 72 h; for Osr1 expression, Wnt antagonist combined with VPA / Six2 expression, Wnt antagonist combined with VPA: VPA 4 mM last 24 h; for Osr1 expression, Wnt antagonist alone: no VPA
Description: as §1, §2

[1] = fetal kidney cells, DKK1 3 μg/ml or sFRP1 7 μg/ml 72 h, VPA 4 mM last 24 h
[2] = fetal kidney cells, DKK1 3 μg/ml or sFRP1 7 μg/ml 72 h, no VPA

Molecule | Six2 expression, Wnt antagonist alone (human fetal kidney cells; FK cells, DKK1 3 μg/ml or sFRP1 7 μg/ml 72 h, no VPA) | Osr1 expression, Wnt antagonist combined with VPA (human fetal kidney cells; [1]) | Osr1 expression, Wnt antagonist alone (human fetal kidney cells; [2]) | Six2 expression, Wnt antagonist combined with VPA (human fetal kidney cells; fetal kidney cells, sFRP1 7 μg/ml 72 h, VPA 4 mM last 24 h) | Osr1 expression, Wnt antagonist combined with VPA (human adult kidney cells) | Six2 expression, Wnt antagonist combined with VPA (human adult kidney cells) | Osr1 expression, Wnt antagonist alone (human adult kidney cells)
B1 | elevated Six2 levels | synergistic affect | little effect | synergistic effect | synergistic affect | synergistic effect | little effect
B2 | – | synergistic affect | little effect | – | synergistic affect | synergistic effect | little effect
